The text below walks through data of patent US9352039B2, “Method of reducing the number of EMT and MET type breast cancer stem cells” (The Regents of the University of Michigan, priority 2012, dated 2016).

What all share (type): cell-based, human
One series concerns MCF-10A cells. The experiment in a line: flow cytometry for EpCAM/CD49f, ALDH (Aldefluor) and CD24/CD44 after inducible lentiviral microRNA over-expression. To be noted: for ALDH-positive CSC population / CD24−CD44+ population: expression of the microRNA in MCF10A cells and several cancer cell lines. From the text:
Cells were transduced with pTRIPZ-microRNA-RFP lentiviruses with inducible systems and selected with puromycin, and microRNAs were induced with or without (CONTROL) Doxycycline and analyzed for RFP, EpCAM and CD49f.
(§1) Furthermore, forced over-expression of mir-100 or mir-221 increased the proportion of EpCAM^−CD49f^+ cells in non-transformed MCF-10A cells as well as primary normal human mammary cells isolated from reduction mammoplasty specimens. […] This was followed by an EMT/MET transition in the Aldefluor-positive CSC population. Since TGFβ is a major regulator of EMT, abrogation of this signaling pathway may facilitate MET.
Of interest, it has been recently reported that the mir106b-25 cluster including mir-93 is induced in the early stages of nuclear reprogramming of fibroblasts into IPS cells. This is accompanied by an EMT to MET conversion in these cells which is obligatory for reprogramming to occur.
(§2) A TET on/off inducible system was established to over-express microRNAs in a lentiviral vector tagged with RFP. Utilizing this system, it was shown that forced over-expression of mir-93 increases the proportion of EpCAM^+CD49f^+ and ALDH^+ cells (FIG. 5). […] Furthermore, forced over-expression of mir-100 increased the proportion of EpCAM^−CD49f^+ cells (FIG. 5).
(A flow cytometer gives signals particle by particle.)

Another series concerns TGFβR2. The experiment in a line: TGFβ signaling after mir-93 induction. Conditions: by targeting TGFβR2; effect seen within twelve hours of induction.
Description: as §1

For series [1], the system named is SUM159 cells. As to the kind of experiment: in vitro matrigel invasion assay. Conditions: microRNA induced with Doxycycline vs control; serum as attractant. Here is the method: The invasive capability of pTRIPZ-mir-93-RFP cells or pTRIPZ-mir-100-RFP cells with or without (CONTROL) Doxycycline was assessed by matrigel invasion assay. […] were plated in Matrigel and serum was utilized as the attractant.
as §2
Assays were done in triplicate in invasion chambers pre-coated with reduced growth factor matrix from BD Biosciences. Cells were added to the upper chamber in […] of serum-free medium. For the invasion assay, 20,000 cancer cells were seeded on the coated chamber, and the lower chamber was filled with […] of medium (Cambrex) with FBS. After 37 hours of incubation, the cells on the underside of the upper chambers were stained with the blue stain in the Cell Invasion Assay Kit (Chemicon; cat. #ECM550) and counted using light microscopy.

For series [2], the system named is SUM159 cells. As to the kind of experiment: induction of MET and EMT/MET marker expression in the ALDH-positive CSC population after mir-93 induction. Conditions: induction of the microRNA in EMT SUM159 cells.
Description: as §1, §2

The mark [3] stands for this setting: forced over-expression of the microRNA, MCF-10A and primary normal human mammary cells.
[4] abbreviates: forced over-expression of the microRNA.

B1: mir-221: microRNA (SEQ ID NO:3), forced over-expression in mammary cells (nucleic acid, listed as Homo sapiens)
chain: TGAACATCCAGGTCTGGGGCATGAACCTGGCATACAATGTAGATTTCTGTGTTCGTTAGGCAACAGCTACATTGTCTGCTGGGTTTCAGGCTACCTGGAAACATGTTCTC
For the molecule B1, in the series on MCF-10A cells, the “ALDH-positive CSC population” value is reported as “decrease” and the “CD24−CD44+ population” value was “increase”. Besides, the “proportion of EpCAM−CD49f+ cells” value in the series with MCF-10A cells (setting [3]) is reported as “increased”.

B2: mir-93: microRNA (SEQ ID NO:1) over-expressed from a doxycycline-inducible pTRIPZ lentiviral vector tagged with RFP (nucleic acid, listed as Homo sapiens)
chain: CTGGGGGCTCCAAAGTGCTGTTCGTGCAGGTAGTGTGATTACCCAACCTACTGCTGAGCTAGCACTTCCCGAGCCCCCGG
Turning to B2, in the series on TGFβR2, the TGFβ signaling result was “inhibits TGFβ signaling”. The “proportion of EpCAM+CD49f+ and ALDH+ cells” value with MCF-10A cells (forced over-expression of the microRNA (TET inducible lentiviral vector), MCF-10A and primary normal human mammary cells) is reported as “increases”. Also, the cell invasion entry in the series with SUM159 cells [1] is reported as “decreased cell invasion”. The “MET in the ALDH-positive CSC population” value in the series with SUM159 cells [2] is given as “induces an MET”. In the series on SUM159 cells [2] (ALDH-positive CSC population), the “expression of E-Cadherin and Claudin” value is on record as “increased expression”; the “expression of mesenchymal genes (vimentin, N-Cadherin, Twist)” value is reported as “down-regulation”.

B3: mir-100: microRNA (SEQ ID NO:2) over-expressed from a doxycycline-inducible pTRIPZ lentiviral vector tagged with RFP (nucleic acid, listed as Homo sapiens)
chain: CCTGTTGCCACAAACCCGTAGATCCGAACTTGTGGTATTAGTCCGCACAAGCTTGTATCTATAGGTATGTGTCTGTTAGG
Take B3: in the series on MCF-10A cells, the “ALDH-positive CSC population” value was “decrease” and the “CD24−CD44+ population” value was “increase”. In the series with MCF-10A cells (setting [4]), the “ALDH+ CSC population” value is reported as “decrease” and the “proportion of CD24−CD44+ CSC cells” value is reported as “increase”. The “proportion of EpCAM−CD49f+ cells” value in the series on MCF-10A cells (setting [3]) is listed as “increased”. Also, the cell invasion entry in the series with SUM159 cells [1] is on record as “increased cell invasion”.
